# Laboratory results reported in patent publication US11278600B2, “Human alpha-galactosidase variants” (Codexis, Inc., priority 2014, dated 2022).
# Assays:
# Type in all cases: biochemical
# Conditions in all cases: activity of the variant/activity of WT GLA (SEQ ID NO: 5), yeast supernatant
# [1] = HTP-analysis of yeast culture supernatants, no challenge (MUGal hydrolysis)
# In short: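 Activity read as 4-methylumbelliferyl α-D-galactopyranoside hydrolysis: fluorescence (355/448 nm) after sodium carbonate stop, following 30-180 min at 37° C with 2 mM MUGal stock at pH 4.6–4.8. Enzyme source is unchallenged culture supernatant of INVSc1 yeast expressing GLA variants, grown 66-84 h at 30° C.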
# [2] = HTP-analysis of supernatants pretreated with acid (MUGal hydrolysis)
# In short: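 Fluorescence of MUGal hydrolysis (Ex. 355 nm, Em. 448 nm) is read after sodium carbonate quench. The enzyme source is INVSc1 yeast culture supernatant, first exposed to pH 3.3-4.3 McIlvaine buffer at 37° C. for 1-3 h, then reacted at pH 4.8 for 30-180 minutes.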
# [3] = HTP-analysis of supernatants pretreated with base (MUGal hydrolysis)
# In short: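 GLA variants secreted from yeast INVSc1; culture supernatants pre-incubated with McIlvaine buffer pH 7.0–8.2 or 200 mM bicarbonate pH 9.1–9.7 at 37° C. for 1–18 h. Residual activity: MUGal (4 mM stock) hydrolysis at pH 4.3–4.8, 37° C., 30–180 min, carbonate quench; fluorescence Ex 355/Em 448 nm.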
molecule,measurement,setting,value
"32 (protein, Synthetic Polypeptide sequence of Variant No. 32 of mature Human GLA) LDNGLARTPTMGWLHWERFMCNLDCQEEPDSCISEKLFMEMAELMVSEGWKDAGYEYLCIDDCWMAPQRDSEGRLQADPQRFPHGIRQLANYVHSKGLKLGIYADVGNKTCAGFPGSFGYYDIDAQTFADWGVDLLKFDGCYCDSLENLADGYKHMSLALNRTGRSIVYSCEWPLYMWPFQKPNYTEIRQYCNHWRNFADIDDSWKSIKSILDWTSFNQERIVDVAGPGGWNDPDMLVIGNFGLSWNQQVTQMALWAIMAAPLFMSNDLRHISPQAKALLQDKDVIAINQDPLGKQGYQLRQGDNFEVWERPLSGLAWAVAMINRQEIGGPRSYTIAVASLGKGVACNPACFITQLLPVKRKLGFYEWTSRLKSHVNPTGTVLLQLENTMQMSLKDLLL",Relative Activity of GLA Variants After No Challenge (NC),[1],+ (+ = 0.5 to 1.5 relative activity over WT GLA (SEQ ID NO: 5))
same,Relative Activity of GLA Variants After Challenge at pH 4.3,[2],++ (++ = >1.5 to 2.5 relative activity over WT GLA (SEQ ID NO: 5))
same,Relative Activity of GLA Variants After Challenge at pH 7.0,[3],+ (+ = 0.5 to 1.5 relative activity over WT GLA (SEQ ID NO: 5))
"1 (protein, Synthetic Polypeptide sequence of Variant No. 1 of mature Human GLA) LDNGLARTPTMGWLHWERFMCNLDCQEEPDSCISEKLFMEMAELMVSEGWKDAGYEYLCIDDCWMAPQRDSEGRLQADPQRFPHGIRQLANYVHSKGLKLGIYADVGNKTCAGFPGSFGYYDIDAQTFADWGVDLLKFDGCYCDSLENLADGYKHMSLALNRTGRSIVYSCEWPLYMWPFQKPNYTEIRQYCNHWRNFADIDDSWKSIKSILDWTSFNQERIVDVAGPGGWNDPDMLVIGNFGLSWNQQVTQMALWAIMAAPLFMSNDLRHISPQAKALLQDKDVIAINQDPLGKQGYQLRQGDNFEVWERPLSGLAWAVAMINRQEIGGPRSYTISVASLGKGVACNPACFITQLLPVKRKLGFYEWTSRLRSHINPTGTVLLQLENTMQMSLKDLL",Relative Activity of GLA Variants After No Challenge (NC),[1],+ (+ = 0.5 to 1.5 relative activity over WT GLA (SEQ ID NO: 5))
same,Relative Activity of GLA Variants After Challenge at pH 4.3,[2],+ (+ = 0.5 to 1.5 relative activity over WT GLA (SEQ ID NO: 5))
same,Relative Activity of GLA Variants After Challenge at pH 7.0,[3],+ (+ = 0.5 to 1.5 relative activity over WT GLA (SEQ ID NO: 5))
"124 (protein, Synthetic Polypeptide sequence of Variant No. 124 of mature Human GLA) LDNGLARTPTMGWLHWERFMCNLDCQEEPDSCISEKLFMEMAELMVSEGWKDAGYEYLCIDDCWMAPQRDSEGRLQADPQRFPHGIRQLANYVHSKGLKLGIYADVGNKTCAGFPGSFGYYDIDAQTFADWGVDLLKFDGCYCDSLENLADGYKHMSLALNRTGRSIVYSCEWPLYMWPFQKPNYTEIRQYCNHWRNFADIDDSWKSIKSILDWTSFNQERIVDVAGPGGWNDPDMLVIGNFGLSWNQQVTQFALWAIMAAPLFMSNDLRHISPQAKALLQDKDVIAINQDPLGKQGYQLRQGDNFEVWERPLSGLAWAVAMINRQEIGGPRSYTIAVASLGKGVACNPACFITQLLPVKRKLGFYEWTSRLRSHINPTGTVLLQLENTMQMSKDLLL",Relative Activity of GLA Variants After No Challenge (NC),[1],++ (++ = >1.5 to 2.5 relative activity over WT GLA (SEQ ID NO: 5))
same,Relative Activity of GLA Variants After Challenge at pH 4.2,[2],++ (++ = >1.5 to 2.5 relative activity over WT GLA (SEQ ID NO: 5))
same,Relative Activity of GLA Variants After Challenge at pH 7.1,[3],+ (+ = 0.5 to 1.5 relative activity over WT GLA (SEQ ID NO: 5))
"2 (protein, Synthetic Polypeptide sequence of Variant No. 2 of mature Human GLA) LDNGLARTPTMGWLHWERFMCNLDCQEEPDSCISEKLFMEMADLMVSEGWKDAGYEYLCIDDCWMAPQRDSEGRLQADPQRFPHGIRQLANYVHSKGLKLGIYADVGNKTCAGFPGSFGYYDIDAQTFADWGVDLLKFDGCYCDSLENLADGYKHMSLALNRTGRSIVYSCEWPLYMWPFQKPNYTEIRQYCNHWRNFADIDDSWKSIKSILDWTSFNQERIVDVAGPGGWNDPDMLVIGNFGLSWNQQVTQMALWAIMAAPLFMSNDLRHISPQAKALLQDKDVIAINQDPLGKQGYQLRQGDNFEVWERPLSGLAWAVAMINRQEIGGPRSYTIAVASLGKGVACNPACFITQLLPVKRKLGFYEWTSRLRSHINPTGTVLLQLENTMQMSLKDLL",Relative Activity of GLA Variants After No Challenge (NC),[1],+ (+ = 0.5 to 1.5 relative activity over WT GLA (SEQ ID NO: 5))
same,Relative Activity of GLA Variants After Challenge at pH 4.3,[2],+ (+ = 0.5 to 1.5 relative activity over WT GLA (SEQ ID NO: 5))
same,Relative Activity of GLA Variants After Challenge at pH 7.0,[3],+ (+ = 0.5 to 1.5 relative activity over WT GLA (SEQ ID NO: 5))
"127 (protein, Synthetic Polypeptide sequence of Variant No. 127 of mature Human GLA) LDNGLARTPTMGWLHWERFMCNLDCQEEPDSCISEKLFMEMAELMVSEGWKDAGYEYLCIDDCWMAPQRDSEGRLQADPQRFPHGIRQLANYVHSKGLKLGIYADVGNKTCAGFPGSFGYYDIDAQTFADWGVDLLKFDGCYCDSLENLADGYKHMSLALNRTGRSIVYSCEWPLYMWPFQKPNYTEIRQYCNHWRNFADIDDSWKSIKSILDWTSFNQERIVDVAGPGGWNDPDMLVIGNFGLSWNQQVTQMALWAIMAAPLFMSNDLRHISPQAKALLQDKDVIAINQDPLGKQGYQLRQGDNFEVWERPLSGLAWAVAMINRQEIGGPRSYTIAVASLGKGVACNPACFITQLLPVKRKLGFYEWTSRLRSHINPTGTVLLQLENTRQMSKDLLL",Relative Activity of GLA Variants After No Challenge (NC),[1],++ (++ = >1.5 to 2.5 relative activity over WT GLA (SEQ ID NO: 5))
same,Relative Activity of GLA Variants After Challenge at pH 4.2,[2],++ (++ = >1.5 to 2.5 relative activity over WT GLA (SEQ ID NO: 5))
same,Relative Activity of GLA Variants After Challenge at pH 7.1,[3],++ (++ = >1.5 to 2.5 relative activity over WT GLA (SEQ ID NO: 5))
"126 (protein, Synthetic Polypeptide sequence of Variant No. 126 of mature Human GLA) LDNGLARTPTMGWLHWERFMCNLDCQEEPDSCISEKLFMEMAELMVSEGWKDAGYEYLCIDDCWMAPQRDSEGRLQADPQRFPHGIRQLANYVHSKGLKLGIYADVGNKTCAGFPGSFGYYDIDAQTFADWGVDLLKFDGCYCDSLENLADGYKHMSLALNRTGRSIVYSCEWPLYMWPFQKPNYTEIRQYCNHWRNFADIDDSWKSIKSILDWTSFNQERIVDVAGPGGWNDPDMLVIGNFGLSWNQQVTQMALWAIMAAPLFMSNDLRHISPQAKALLQDKDVIAINQDPLGKQGYQLRQGDNFEVWERPLSGLAWAVAMINRQEIGGPRSYTIAVASLGKGVACNPACFITQLLPVKRKLGFYEWTSRLRSHINPTGTVLLQLENTDQMSKDLLL",Relative Activity of GLA Variants After No Challenge (NC),[1],+++ (+++ = >2.5 relative activity over WT GLA (SEQ ID NO: 5))
same,Relative Activity of GLA Variants After Challenge at pH 4.2,[2],+++ (+++ = >2.5 relative activity over WT GLA (SEQ ID NO: 5))
same,Relative Activity of GLA Variants After Challenge at pH 7.1,[3],+++ (+++ = >2.5 relative activity over WT GLA (SEQ ID NO: 5))
"123 (protein, Synthetic Polypeptide sequence of Variant No. 123 of mature Human GLA) LDNGLARTPTMGWLHWERFDCNLDCQEEPDSCISEKLFMEMAELMVSEGWKDAGYEYLCIDDCWMAPQRDSEGRLQADPQRFPHGIRQLANYVHSKGLKLGIYADVGNKTCAGFPGSFGYYDIDAQTFADWGVDLLKFDGCYCDSLENLADGYKHMSLALNRTGRSIVYSCEWPLYMWPFQKPNYTEIRQYCNHWRNFADIDDSWKSIKSILDWTSFNQERIVDVAGPGGWNDPDMLVIGNFGLSWNQQVTQMALWAIMAAPLFMSNDLRHISPQAKALLQDKDVIAINQDPLGKQGYQLRKGDNFEVWERPLSGLAWAVAMINRQEIGGPRSYTIAVASLGKGVACNPACFITQLLPVKRKLGFYEWTSRLRSHINPTGTVLLQLENTMQMSKDLLL",Relative Activity of GLA Variants After No Challenge (NC),[1],− (− = <0.5 relative activity to WT GLA (SEQ ID NO: 5))
same,Relative Activity of GLA Variants After Challenge at pH 4.2,[2],+ (+ = 0.5 to 1.5 relative activity over WT GLA (SEQ ID NO: 5))
same,Relative Activity of GLA Variants After Challenge at pH 7.1,[3],− (− = <0.5 relative activity to WT GLA (SEQ ID NO: 5))
"125 (protein, Synthetic Polypeptide sequence of Variant No. 125 of mature Human GLA) LDNGLARTPTMGWLHWERFMCNLDCQEEPDSCISEKLFMEMAELMVSEGWKDAGYEYLCIDDCWMAPQRDSEGRLQADPQRFPHGIRQLANYVHSKGLKLGIYADVGNKTCAGFPGSFGYYDIDAQTFADWGVDLLKFDGCYCDSLENLADGYKHMSLALNRTGRSIVYSCEWPLYMWPFQKPNYTEIRQYCNHWRNFADIDDSWKSIKSILDWTSFNQERIVDVAGPGGWNDPDMLVIGNFGLSWNQQVTQMALWAIMAAPLFMSNDLRHISPQAKALLQDKDVIAINQDPLGKQGYQLRQGDNFEVWERPLSGLAWAVAIINRQEIGGPRSYTIAVASLGKGVACNPACFITQLLPVKRKLGFYEWTSRLRSHINPTGTVLLQLENTMQMSKDLLL",Relative Activity of GLA Variants After No Challenge (NC),[1],+ (+ = 0.5 to 1.5 relative activity over WT GLA (SEQ ID NO: 5))
same,Relative Activity of GLA Variants After Challenge at pH 4.2,[2],+ (+ = 0.5 to 1.5 relative activity over WT GLA (SEQ ID NO: 5))
same,Relative Activity of GLA Variants After Challenge at pH 7.1,[3],+ (+ = 0.5 to 1.5 relative activity over WT GLA (SEQ ID NO: 5))
